Experimental data published in patent US20220312749A1 (BIOCYTOGEN PHARMACEUTICALS BEIJING, published 2022).

Assays:
Experiment in all cases: inferred by the filing from p-STAT5 flow cytometry on humanized mouse splenocytes
mouse IL2RB = biological target: T1, mouse IL2RB (mouse, UniProt P16297 27-539)
T1 construct: whole, on cells; also called CD122
T1 sequence (looked up): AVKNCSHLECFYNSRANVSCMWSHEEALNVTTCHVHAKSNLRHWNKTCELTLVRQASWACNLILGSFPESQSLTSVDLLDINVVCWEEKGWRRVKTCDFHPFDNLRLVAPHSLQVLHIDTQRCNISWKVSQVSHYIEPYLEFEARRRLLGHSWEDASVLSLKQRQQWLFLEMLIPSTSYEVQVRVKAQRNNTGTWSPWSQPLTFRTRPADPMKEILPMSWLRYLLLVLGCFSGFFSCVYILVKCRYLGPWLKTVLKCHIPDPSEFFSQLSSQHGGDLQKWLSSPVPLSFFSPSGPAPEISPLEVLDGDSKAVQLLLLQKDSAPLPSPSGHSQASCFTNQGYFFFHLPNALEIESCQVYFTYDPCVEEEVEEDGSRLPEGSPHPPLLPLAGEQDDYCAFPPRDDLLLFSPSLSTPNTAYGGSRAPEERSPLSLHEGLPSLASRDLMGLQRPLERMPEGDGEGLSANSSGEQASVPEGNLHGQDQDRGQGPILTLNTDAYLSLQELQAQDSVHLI
Method: (§1) p-STAT5 is a known downstream signal in the IL2/IL2RA-mediated signaling pathway. Thus, the level of p-STAT5 in the IL2RA gene humanized mice can be detected to verify whether the IL2/IL2RA signaling pathway is functional in the humanized mice. Spleen cells from 14-week old wild-type C57BL/6 mice and IL2RA gene humanized homozygous mice were isolated (5×10⁵ cells/well, 4 wells each) and incubated in a 37° C. incubator for 30 minutes. […] Then, the stimulated cells were stained by APC Rat Anti-Mouse CD3 Molecular Complex, permeabilized, and stained by Phospho-Stat5 (Tyr694) (D47E7) XP® Rabbit mAb and Anti-rabbit IgG (H+L), F(ab′)2 Fragment (Alexa Fluor® 488 Conjugate), followed by flow cytometry analysis.

[1] = biological target: T2, Mouse recombinant interleukin 2 (mIL2) (mouse, UniProt P04351 21-169)
T2 construct: Bought reagent; also called recombinant mouse IL2; mouse IL2
T2 sequence (looked up): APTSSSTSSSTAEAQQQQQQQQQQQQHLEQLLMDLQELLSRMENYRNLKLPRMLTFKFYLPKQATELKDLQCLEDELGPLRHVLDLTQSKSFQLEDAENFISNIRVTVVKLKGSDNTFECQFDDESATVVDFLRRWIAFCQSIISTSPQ
Method: as §1

mouse IL2RG = biological target: T3, mouse IL2RG (mouse, UniProt P34902 23-369)
T3 construct: whole, on cells; also called CD132; common gamma chain
T3 sequence (looked up): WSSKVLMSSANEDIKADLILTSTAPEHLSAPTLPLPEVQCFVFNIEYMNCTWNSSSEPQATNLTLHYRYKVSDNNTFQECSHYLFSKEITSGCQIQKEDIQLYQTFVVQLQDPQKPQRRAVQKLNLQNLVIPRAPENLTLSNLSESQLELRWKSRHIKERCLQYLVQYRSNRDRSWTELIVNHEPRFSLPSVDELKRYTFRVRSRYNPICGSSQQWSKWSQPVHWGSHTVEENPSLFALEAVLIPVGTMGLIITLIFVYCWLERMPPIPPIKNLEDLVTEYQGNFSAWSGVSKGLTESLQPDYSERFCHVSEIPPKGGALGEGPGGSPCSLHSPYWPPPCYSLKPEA
Method: as §1

Measured: binding result

B1: humanized IL2RA protein (chimeric human/mouse IL2RA expressed by B-hIL2RA mice) (receptor)
chain: ELCDDDPPEIPHATFKAMAYKEGTMLNCECKRGFRRIKSGSLYMLCTGNSSHSSWDNQCQCTSSATRNTTKQVTPQPEEQKERKTTEMQSPMQPVDQASLPGHCREPPPWENEATERIYHFVVGQMVYYQCVQGYRALHRGPAESVCKMTHGKTRWTQPQLICTGEMETSQFPGEEKPQASPEGRPESETSCLVTTTDFQIQTEMAATMETSIFTTEYKVAVASCLFLLISILLLSGLTWQHRWRKSRRTI
notes: also called chimeric IL2RA; engineered mouse IL2RA after humanization
binds: all assays above
